Reference: patent US7208171B2, “Injectable and bioadhesive polymeric hydrogels as well as related methods of enzymatic preparation” (Northwestern University, priority 2002, dated 2007)
Non-standard residues stand in square brackets, D forms with d. No end group written: not given here. Dopa = N[C@@H](Cc1ccc(O)c(O)c1)C(=O)O

How the values were obtained:
[1] = target: T1, guinea pig liver transglutaminase (guinea pig, UniProt P08587 2-690); assay: cell-based or functional assay
T1 sequence (looked up): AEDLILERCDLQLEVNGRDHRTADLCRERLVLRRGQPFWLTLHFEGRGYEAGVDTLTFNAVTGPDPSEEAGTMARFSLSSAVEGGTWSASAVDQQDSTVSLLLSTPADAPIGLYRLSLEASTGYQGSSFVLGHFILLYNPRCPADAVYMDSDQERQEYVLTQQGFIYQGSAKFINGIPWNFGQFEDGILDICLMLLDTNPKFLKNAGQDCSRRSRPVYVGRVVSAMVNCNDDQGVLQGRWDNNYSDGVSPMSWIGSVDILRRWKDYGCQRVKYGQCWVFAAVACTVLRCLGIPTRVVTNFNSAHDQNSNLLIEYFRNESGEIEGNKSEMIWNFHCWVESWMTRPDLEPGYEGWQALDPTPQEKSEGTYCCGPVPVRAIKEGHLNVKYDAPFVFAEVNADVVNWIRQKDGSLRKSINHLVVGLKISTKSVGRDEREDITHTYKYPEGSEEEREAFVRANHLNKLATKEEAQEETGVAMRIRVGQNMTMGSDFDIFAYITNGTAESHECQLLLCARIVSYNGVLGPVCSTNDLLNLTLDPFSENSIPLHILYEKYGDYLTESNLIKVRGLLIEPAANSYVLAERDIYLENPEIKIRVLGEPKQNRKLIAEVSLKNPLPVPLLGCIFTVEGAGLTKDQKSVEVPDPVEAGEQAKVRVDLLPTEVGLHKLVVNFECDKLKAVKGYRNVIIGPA

[2] = target: T2, guinea pig liver transglutaminase (UniProt P08587); assay: Substrate specificity: TGase-catalysed cross-linking of peptide with dansyl labeled substrate, RP-HPLC; format: biochemical; details: peptide concentration 0.05–50 mM, enzyme 0.05 U/ml, reaction time 30 min
T2 construct: Transglutaminase from guinea pig liver, Boc-L-Lys(Boc)-OH, and N-Boc-L-DOPA dicyclohexylammonium salt was purchased from Sigma Chemical Company; purchased Sigma Chemical Company (St. Louis, Mo.); host or cells: guinea pig liver (tissue-derived enzyme)
T2 sequence (P08587 1-690): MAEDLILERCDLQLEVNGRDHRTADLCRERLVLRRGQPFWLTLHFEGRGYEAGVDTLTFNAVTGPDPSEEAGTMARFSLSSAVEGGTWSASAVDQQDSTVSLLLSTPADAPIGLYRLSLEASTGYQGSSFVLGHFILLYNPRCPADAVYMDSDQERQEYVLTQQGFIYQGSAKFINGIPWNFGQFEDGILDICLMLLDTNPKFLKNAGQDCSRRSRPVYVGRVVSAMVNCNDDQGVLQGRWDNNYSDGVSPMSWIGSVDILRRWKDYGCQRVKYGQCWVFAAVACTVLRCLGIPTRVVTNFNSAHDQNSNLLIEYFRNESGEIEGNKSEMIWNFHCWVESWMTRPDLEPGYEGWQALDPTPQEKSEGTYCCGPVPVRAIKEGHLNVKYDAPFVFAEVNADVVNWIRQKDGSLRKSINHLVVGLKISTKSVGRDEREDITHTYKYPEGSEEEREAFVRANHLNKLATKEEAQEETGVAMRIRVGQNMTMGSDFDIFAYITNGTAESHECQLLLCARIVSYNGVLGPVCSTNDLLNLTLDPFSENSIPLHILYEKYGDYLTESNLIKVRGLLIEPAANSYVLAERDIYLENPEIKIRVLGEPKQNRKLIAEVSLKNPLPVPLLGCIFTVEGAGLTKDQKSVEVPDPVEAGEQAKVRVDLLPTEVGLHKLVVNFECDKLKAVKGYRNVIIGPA
Method: For acyl donor attention was focused on peptides containing two to about 5 contiguous glutaminyl (e.g., Gln residues), whereas for acyl acceptor a variety of residues were placed near or adjacent Lys. The peptides were assayed as TGase substrates by monitoring the rate of cross-linking reaction with a known dansyl labeled substrate. The use of fluorescently labeled compounds and RP-HPLC analysis with the aid of LC-ESI/MS, allowed for identification of products and comparison of the kinetic constants of the candidate peptides. The specificity (kcat/Km, app) values determined under identical experimental conditions reflect the relative specificity of the enzyme toward the substrates; peptides with higher specificities are better substrates for TGase enzyme, indicating the enzyme-catalyzed cross-linking reaction of that peptide will proceed more rapidly.
Substrate Specificity. […] All reaction products were characterized by LC-ESI/MS (Table 3) and quantitatively analyzed by RP-HPLC. Kinetic constants (Table 4a–b and FIG. 6) were calculated from two methods: fit of the initial rates versus substrate concentrations to the Michaelis-Menten equation using the SigmaPlot® 2000 program with Enzyme Kinetics Module (SPSS Inc., IL); and graphing of the kinetic data using the direct linear plot. […]

Ac-FKG-NH2 = target: T3, Ac-FKG-NH2
T3 chain: FKG

Ac-GQQQLG-NH2 = target: T4, Ac-GQQQLG-NH2
T4 chain: GQQQLG

Ac-KG-NH2 = target: T5, Ac-KG-NH2
T5 chain: KG

Ac-LKG-NH2 = target: T6, Ac-LKG-NH2
T6 chain: LKG

DOPA-FKG-NH2 = target: T7, DOPA-FKG-NH2
T7 chain: XFKG

DOPA-GQQQLG-NH2 = target: T8, DOPA-GQQQLG-NH2
T8 chain: XGQQQLG

DOPA-LKG-NH2 = target: T9, DOPA-LKG-NH2
T9 chain: XLKG

FKG-NH2 = target: T10, FKG-NH2
T10 chain: FKG

LKG-NH2 = target: T11, LKG-NH2
T11 chain: LKG

NH2-GQLKHLEQQEG-NH2 = target: T12, NH2-GQLKHLEQQEG-NH2
T12 chain: GQLKHLEQQEG

DOPA-LKG-NH2 (peptide)
fold increase in specificity against Ac-KG-NH2 [1]: 100 fold
fold increase in specificity against Ac-LKG-NH2 [1]: 2.4 fold

DOPA-Lys-Gly-NH2 ([Dopa]-Lys-Gly-NH2; N-terminus assumed; SMILES NCCCC[C@H](NC(=O)[C@@H](N)Cc1ccc(O)c(O)c1)C(=O)NCC(N)=O) [Peptide 4]
cross-linking product detection [2]: No cross-linking product was detected

DOPA-FKG-NH2 (peptide)
fold increase in specificity against Ac-FKG-NH2 [1]: 2.4 fold
fold increase in specificity against Ac-KG-NH2 [1]: 100 fold

Ac-Leu-Lys-Gly-NH2 [Ac-LKG-NH2]
fold increase in specificity against LKG-NH2 [1]: ~10 fold

Ac-Phe-Lys-Gly-NH2 [Ac-FKG-NH2]
fold increase in specificity against FKG-NH2 [1]: ~10 fold

B1: guinea pig liver transglutaminase (protein)
chain: T1 sequence (looked up)
Km, app (Ac-FKG-NH2): 46.9 µM
Vmax, app (Ac-FKG-NH2): 1.46 µM/min
kcat (Ac-FKG-NH2): 0.438 s⁻¹
kcat/Km, app (Ac-FKG-NH2): 9330 M⁻¹ s⁻¹
Km, app (Ac-GQQQLG-NH2): 119 µM
Vmax, app (Ac-GQQQLG-NH2): 1.8 mM/min
kcat (Ac-GQQQLG-NH2): 0.0667 s⁻¹
kcat/Km, app (Ac-GQQQLG-NH2): 568 M⁻¹ s⁻¹
substrate properties (acyl donor) (Ac-GQQQLG-NH2): all three designed Gln peptides exhibiting good substrate properties
Km, app (Ac-KG-NH2): 872 µM
Vmax, app (Ac-KG-NH2): 1.02 µM/min
kcat (Ac-KG-NH2): 0.153 s⁻¹
kcat/Km, app (Ac-KG-NH2): 177 M⁻¹ s⁻¹
Km, app (Ac-LKG-NH2): 56 µM
Vmax, app (Ac-LKG-NH2): 1.5 µM/min
kcat (Ac-LKG-NH2): 0.45 s⁻¹
kcat/Km, app (Ac-LKG-NH2): 8030 M⁻¹ s⁻¹
Km, app (DOPA-FKG-NH2): 17 µM
Vmax, app (DOPA-FKG-NH2): 1.25 µM/min
kcat (DOPA-FKG-NH2): 0.375 s⁻¹
kcat/Km, app (DOPA-FKG-NH2): 22100 M⁻¹ s⁻¹
Km, app (DOPA-GQQQLG-NH2): 367 µM
Vmax, app (DOPA-GQQQLG-NH2): 7.8 mM/min
kcat (DOPA-GQQQLG-NH2): 0.293 s⁻¹
kcat/Km, app (DOPA-GQQQLG-NH2): 798 M⁻¹ s⁻¹
substrate properties (acyl donor) (DOPA-GQQQLG-NH2): all three designed Gln peptides exhibiting good substrate properties
Km, app (DOPA-LKG-NH2): 19.5 µM
Vmax, app (DOPA-LKG-NH2): 1.28 µM/min
kcat (DOPA-LKG-NH2): 0.383 s⁻¹
kcat/Km, app (DOPA-LKG-NH2): 19600 M⁻¹ s⁻¹
Km, app (FKG-NH2): 498 µM
Vmax, app (FKG-NH2): 1.7 µM/min
kcat (FKG-NH2): 0.51 s⁻¹
kcat/Km, app (FKG-NH2): 1030 M⁻¹ s⁻¹
Km, app (LKG-NH2): 609 µM
Vmax, app (LKG-NH2): 1.64 µM/min
kcat (LKG-NH2): 0.492 s⁻¹
kcat/Km, app (LKG-NH2): 807 M⁻¹ s⁻¹
Km, app (NH2-GQLKHLEQQEG-NH2): 593 µM
Vmax, app (NH2-GQLKHLEQQEG-NH2): 12.5 mM/min
kcat (NH2-GQLKHLEQQEG-NH2): 0.468 s⁻¹
kcat/Km, app (NH2-GQLKHLEQQEG-NH2): 788 M⁻¹ s⁻¹
substrate properties (acyl donor) (NH2-GQLKHLEQQEG-NH2): all three designed Gln peptides exhibiting good substrate properties

Phe-Lys-Gly-NH2 [FKG-NH2]
fold increase in specificity against Ac-KG-NH2 [1]: ~5 fold

Leu-Lys-Gly-NH2 [LKG-NH2]
fold increase in specificity against Ac-KG-NH2 [1]: ~5 fold
